Target: T1, human complement component C5 (human, UniProt P01031 19-673; P01031 678-1676)
T1 construct: mature; Mature C5 is a disulphide-linked beta and alpha chain cut from one precursor; Terbium-labelled in the FRET assays, biotinylated in part of the phage ELISA; also called human C5; C5-Tb
Experiment: SPR multi-cycle kinetics, human C5 immobilised, mean of n=3

T1 sequence (P01031 19-673 limits assumed, chain 1 of 2): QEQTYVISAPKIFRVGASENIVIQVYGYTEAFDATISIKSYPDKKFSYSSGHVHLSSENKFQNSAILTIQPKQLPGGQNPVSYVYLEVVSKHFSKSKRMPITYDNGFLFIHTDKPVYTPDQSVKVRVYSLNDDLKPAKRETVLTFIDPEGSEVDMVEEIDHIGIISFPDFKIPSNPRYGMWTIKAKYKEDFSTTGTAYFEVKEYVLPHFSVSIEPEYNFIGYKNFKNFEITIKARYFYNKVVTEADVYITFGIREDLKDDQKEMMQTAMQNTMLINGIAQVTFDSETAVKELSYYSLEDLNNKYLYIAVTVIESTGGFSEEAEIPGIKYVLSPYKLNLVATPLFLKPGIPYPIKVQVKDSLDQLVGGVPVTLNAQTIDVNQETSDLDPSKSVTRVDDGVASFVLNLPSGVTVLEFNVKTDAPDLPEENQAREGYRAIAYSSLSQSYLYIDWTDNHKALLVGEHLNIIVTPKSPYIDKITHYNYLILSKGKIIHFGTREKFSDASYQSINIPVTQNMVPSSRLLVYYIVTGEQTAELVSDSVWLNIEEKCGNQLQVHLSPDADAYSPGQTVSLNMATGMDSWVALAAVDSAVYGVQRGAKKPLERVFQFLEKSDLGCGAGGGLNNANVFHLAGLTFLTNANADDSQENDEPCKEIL
T1 sequence (P01031 678-1676 limits assumed, chain 2 of 2): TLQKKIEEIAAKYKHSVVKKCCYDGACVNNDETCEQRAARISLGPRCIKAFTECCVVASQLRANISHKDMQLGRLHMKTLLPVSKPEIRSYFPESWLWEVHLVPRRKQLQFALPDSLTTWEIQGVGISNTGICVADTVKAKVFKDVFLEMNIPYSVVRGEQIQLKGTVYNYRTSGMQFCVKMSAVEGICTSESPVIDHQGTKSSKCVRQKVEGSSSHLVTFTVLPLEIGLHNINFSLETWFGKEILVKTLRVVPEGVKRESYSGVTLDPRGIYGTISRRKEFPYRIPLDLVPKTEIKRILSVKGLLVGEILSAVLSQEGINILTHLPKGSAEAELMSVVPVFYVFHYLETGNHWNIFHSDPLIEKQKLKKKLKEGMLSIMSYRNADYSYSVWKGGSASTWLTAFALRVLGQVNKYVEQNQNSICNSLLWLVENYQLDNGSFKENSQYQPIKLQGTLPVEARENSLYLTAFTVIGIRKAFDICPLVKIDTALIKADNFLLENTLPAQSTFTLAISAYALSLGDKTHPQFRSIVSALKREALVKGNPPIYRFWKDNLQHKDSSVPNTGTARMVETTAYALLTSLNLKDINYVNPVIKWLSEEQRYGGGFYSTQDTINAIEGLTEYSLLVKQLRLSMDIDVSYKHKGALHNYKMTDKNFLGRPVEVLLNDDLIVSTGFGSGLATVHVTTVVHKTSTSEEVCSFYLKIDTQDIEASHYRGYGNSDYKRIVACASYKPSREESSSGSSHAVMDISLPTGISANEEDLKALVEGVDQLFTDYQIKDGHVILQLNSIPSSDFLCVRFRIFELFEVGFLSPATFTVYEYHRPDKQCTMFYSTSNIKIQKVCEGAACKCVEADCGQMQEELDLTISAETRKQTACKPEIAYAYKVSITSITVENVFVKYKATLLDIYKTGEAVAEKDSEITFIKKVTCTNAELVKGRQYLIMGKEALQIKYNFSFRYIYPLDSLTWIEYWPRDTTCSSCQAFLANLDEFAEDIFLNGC

Q: TCPEGWSECGVAIYGYECGRWGCGHALNSGPNISPYVST [K92chemFE F26A] was tested. Which Kd did it give?
A: 18.8 nM

Q: And the koff?
A: 0.00328 s⁻¹

Q: And the kon?
A: 184000 M⁻¹ s⁻¹

Q: How did the Kd turn out when TCPEGWSECGVAIYGYECGRAGCGHFLNSGPNISPYVST [K92chemFE W21A] was run?
A: 497 nM

Q: What about the koff of the same binder?
A: 0.00848 s⁻¹

Q: And the kon?
A: 17400 M⁻¹ s⁻¹

Q: How did the Kd turn out when TCPEGWSECGVAIYGAECGRWGCGHFLNSGPNISPYVST [K92chemFE Y16A] was run?
A: 221 nM

Q: What about the koff of the same binder?
A: 0.786 s⁻¹

Q: TCPEGWSECGVAIYGYECGRHGCGHFLNSGPNISPYVST [K92chemFE W21H] was tested. Which Kd did it give?
A: 1.48 nM

Q: What about the koff of the same binder?
A: 0.000612 s⁻¹

Q: What about the kon of the same binder?
A: 425000 M⁻¹ s⁻¹

Q: TCPEGWSECGVAIAGYECGRWGCGHFLNSGPNISPYVST [K92chemFE Y14A] was tested. Which Kd did it give?
A: 3.62 nM

Q: And the koff?
A: 0.0001 s⁻¹

Q: What about the kon of the same binder?
A: 27200 M⁻¹ s⁻¹

Q: How did the Kd turn out when TCPEGASECGVAIYGYECGRWGCGHFLNSGPNISPYVST [K92chemFE W6A] was run?
A: 219 nM

Q: What about the koff of the same binder?
A: 0.00157 s⁻¹

Q: And the kon?
A: 7980 M⁻¹ s⁻¹
